Results reported in patent publication US20240400715A1.

Legend:
[1] = biological target: EGFR-CD3 bispecific antibody 401; assay: BLI self-interaction: antibody captured on AHQ anti-human Fc sensor, free sites blocked with human IgG, same antibody in solution
[2] = biological target: HER2-CD3 bispecific antibody 504; assay: as above

| BLI-Response (self-interaction signal) [1] [nm] | BLI-Response (self-interaction signal) [2] [nm] | Binder |
| --- | --- | --- |
| 0.043 |  | EGFR-CD3 bispecific antibody 401 (bispecific antibody, human IgG4 S228P, kappa, F234A L235A) heavy: EVKLLESGGGLVQPKGSLKLSCAASGFTFNTYAMNWVRQAPGKGLEWVARIRSKYNNYATYYADSVKDRFTISRDDSQSILYLQMNNLKTEDTAMYYCVRHGNFGNSYVSWFAYWGQGTLVTVSSASTKGPSVFPLAPCSRSTSESTAALGCLVKDYFPEPVTVSWNSGALTSGVHTFPAVLQSSGLYSLSSVVTVPSSSLGTKTYTCNVDHKPSNTKVDKRVESKYGPPCPPCPAPEAAGGPSVFLFPPKPKDTLMISRTPEVTCVVVDVSQEDPEVQFNWYVDGVEVHNAKTKPREEQFNSTYRVVSVLTVLHQDWLNGKEYKCKVSNKGLPSSIEKTISKAKGQPREPQVYTLPPCQEEMTKNQVSLWCLVKGFYPSDIAVEWESNGQPENNYKTTPPVLDSDGSFFLYSRLTVDKSRWQEGNVFSCSVMHEALHNHYTQKSLSLSL QVQLQESGGGSVQAGGSLKLSCAASGRGFSRYAMGWFRQAPGQDREFVATISWTNSTDYADSVKGRFAISRDNAKNTAYLQMNSLKPEDTAVYYCAADKWASSTRSIDYDYWGQGIQVTVSSESKYGPPCPPCPAPEAAGGPSVFLFPPKPKDTLMISRTPEVTCVVVDVSQEDPEVQFNWYVDGVEVHNAKTKPREEQFNSTYRVVSVLTVLHQDWLNGKEYKCKVSNKGLPSSIEKTISKAKGQPREPQVCTLPPSQEEMTKNQVSLSCAVKGFYPSDIAVEWESNGQPENNYKTTPPVLDSDGSFFLVSRLTVDKSRWQEGNVFSCSVMHEALHNRFTQKSLSLSL light: QAVVTQESALTTSPGETVTLTCRSSTGAVTTSNYANWVQEKPDHLFTGLIGGTNKRAPGVPARFSGSLIGDKAALTITGAQTEDEAIYFCALWYSNLWVFGGGTKVEIKRTVAAPSVFIFPPSDEQLKSGTASVVCLLNNFYPREAKVQWKVDNALQSGNSQESVTEQDSKDSTYSLSSTLTLSKADYEKHKVYACEVTHQGLSSPVTKSFNRGEC |
|  | 0.07 | HER2-CD3 bispecific antibody 504 (bispecific antibody, human IgG4 S228P, kappa, F234A L235A) QVQLVQSGGGLVQAGGSLRLSCAASGRTFSSYAMAWFRQAPGKEREFVAAISWSGANIYVADSVKGRFTISRDNAKDTVYLQMNSLKPEDTAVYYCAVKLGFAPVEERQYDYWGQGTQVTVSSESKYGPPCPPCPAPEAAGGPSVFLFPPKPKDTLMISRTPEVTCVVVDVSQEDPEVQFNWYVDGVEVHNAKTKPREEQFNSTYRVVSVLTVLHQDWLNGKEYKCKVSNKGLPSSIEKTISKAKGQPREPQVYTLPPCQEEMTKNQVSLWCLVKGFYPSDIAVEWESNGQPENNYKTTPPVLDSDGSFFLYSRLTVDKSRWQEGNVFSCSVMHEALHNHYTQKSLSLSL heavy: EVKLLESGGGLVQPKGSLKLSCAASGFTFNTYAMNWVRQAPGKGLEWVARIRSKYNNYATYYADSVKDRFTISRDDSQSILYLQMNNLKTEDTAMYYCVRHGNFGNSYVSWFAYWGQGTLVTVSSASTKGPSVFPLAPCSRSTSESTAALGCLVKDYFPEPVTVSWNSGALTSGVHTFPAVLQSSGLYSLSSVVTVPSSSLGTKTYTCNVDHKPSNTKVDKRVESKYGPPCPPCPAPEAAGGPSVFLFPPKPKDTLMISRTPEVTCVVVDVSQEDPEVQFNWYVDGVEVHNAKTKPREEQFNSTYRVVSVLTVLHQDWLNGKEYKCKVSNKGLPSSIEKTISKAKGQPREPQVCTLPPSQEEMTKNQVSLSCAVKGFYPSDIAVEWESNGQPENNYKTTPPVLDSDGSFFLVSRLTVDKSRWQEGNVFSCSVMHEALHNRFTQKSLSLSL light: QAVVTQESALTTSPGETVTLTCRSSTGAVTTSNYANWVQEKPDHLFTGLIGGTNKRAPGVPARFSGSLIGDKAALTITGAQTEDEAIYFCALWYSNLWVFGGGTKVEIKRTVAAPSVFIFPPSDEQLKSGTASVVCLLNNFYPREAKVQWKVDNALQSGNSQESVTEQDSKDSTYSLSSTLTLSKADYEKHKVYACEVTHQGLSSPVTKSFNRGEC |
